Test results reported in PMC8079451, “Phosphopeptide interactions of the Nbs1 N-terminal FHA-BRCT1/2 domains” (Scientific Reports, 2021).
Square brackets hold non-standard residues; d marks the D form. Primed or numbered codes have the meaning given here. Ends that are not written are not given here. FITC′ = fluorescein isothiocyanate label; pT = C[C@@H](OP(=O)(O)O)[C@H](N)C(=O)O

Experiments:
Assay in all cases: fluorescence polarisation; 100 nM FITC-labeled phosphopeptide with increasing hsNbs1(384); room temperature, 15 min incubation; 25 mM HEPES pH 7.4, 150 mM NaCl, 1 mM EDTA, 2 mM DTT, 0.05% Tween20, 0.1% BSA; one-site model
Details in all cases: both partners purified
hsNbs1(384) R28A = target: T1, hsNbs1(384) R28A (human, UniProt O60934 1-384, R28A)
T1 construct: source: E. coli BL21(DE3) pLacI, purified as the wild type
T1 sequence (looked up): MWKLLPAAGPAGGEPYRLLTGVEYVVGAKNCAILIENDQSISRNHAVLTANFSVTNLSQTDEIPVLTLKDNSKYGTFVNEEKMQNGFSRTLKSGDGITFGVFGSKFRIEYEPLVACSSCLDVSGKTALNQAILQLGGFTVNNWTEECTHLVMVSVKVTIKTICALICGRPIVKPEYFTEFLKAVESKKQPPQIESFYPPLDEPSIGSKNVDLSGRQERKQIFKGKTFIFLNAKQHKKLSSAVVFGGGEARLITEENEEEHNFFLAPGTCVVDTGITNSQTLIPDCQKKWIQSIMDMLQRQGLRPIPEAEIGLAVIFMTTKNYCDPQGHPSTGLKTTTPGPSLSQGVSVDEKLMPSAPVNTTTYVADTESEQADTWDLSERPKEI

hsNbs1(384) K160A = target: T2, hsNbs1(384) K160A (human, UniProt O60934 1-384, K160A)
T2 construct: source: E. coli BL21(DE3) pLacI, purified as the wild type
T2 sequence (looked up): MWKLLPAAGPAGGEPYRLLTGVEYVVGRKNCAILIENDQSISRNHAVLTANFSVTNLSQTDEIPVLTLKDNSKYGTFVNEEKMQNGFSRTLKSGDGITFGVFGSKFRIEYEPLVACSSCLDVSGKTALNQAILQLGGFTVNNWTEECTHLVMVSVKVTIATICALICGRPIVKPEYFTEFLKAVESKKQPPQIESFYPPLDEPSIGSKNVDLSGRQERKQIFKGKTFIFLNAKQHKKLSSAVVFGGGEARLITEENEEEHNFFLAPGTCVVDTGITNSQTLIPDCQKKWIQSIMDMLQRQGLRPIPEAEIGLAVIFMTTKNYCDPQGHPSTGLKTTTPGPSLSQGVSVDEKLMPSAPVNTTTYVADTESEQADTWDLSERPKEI

hsNbs1(384) S118G = target: T3, hsNbs1(384) S118G (human, UniProt O60934 1-384, S118G)
T3 construct: source: E. coli BL21(DE3) pLacI, purified as the wild type
T3 sequence (looked up): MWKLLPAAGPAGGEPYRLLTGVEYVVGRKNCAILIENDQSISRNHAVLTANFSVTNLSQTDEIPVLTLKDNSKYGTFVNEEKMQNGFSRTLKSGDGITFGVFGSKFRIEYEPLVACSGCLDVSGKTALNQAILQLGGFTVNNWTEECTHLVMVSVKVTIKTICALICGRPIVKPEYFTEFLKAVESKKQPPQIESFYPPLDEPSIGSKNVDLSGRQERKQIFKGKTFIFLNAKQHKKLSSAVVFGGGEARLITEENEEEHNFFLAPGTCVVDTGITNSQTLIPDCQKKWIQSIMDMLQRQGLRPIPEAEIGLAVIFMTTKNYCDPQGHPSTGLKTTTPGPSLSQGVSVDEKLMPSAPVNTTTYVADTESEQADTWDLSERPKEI

hsNbs1(384) K125A = target: T4, hsNbs1(384) K125A (human, UniProt O60934 1-384, K125A)
T4 construct: source: E. coli BL21(DE3) pLacI, purified as the wild type
T4 sequence (looked up): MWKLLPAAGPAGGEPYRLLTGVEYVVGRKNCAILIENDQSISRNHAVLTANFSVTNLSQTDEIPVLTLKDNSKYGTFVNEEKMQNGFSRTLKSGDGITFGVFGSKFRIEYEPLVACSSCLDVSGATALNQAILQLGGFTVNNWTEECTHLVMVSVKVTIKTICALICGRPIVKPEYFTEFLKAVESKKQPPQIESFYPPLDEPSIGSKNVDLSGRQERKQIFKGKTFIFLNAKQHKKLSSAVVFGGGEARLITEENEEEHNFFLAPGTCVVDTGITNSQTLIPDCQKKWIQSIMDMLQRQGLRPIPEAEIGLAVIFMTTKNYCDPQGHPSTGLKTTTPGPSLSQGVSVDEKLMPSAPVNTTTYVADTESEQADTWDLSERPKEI

hsNbs1(384) K29A = target: T5, hsNbs1(384) K29A (human, UniProt O60934 1-384, K29A)
T5 construct: source: E. coli BL21(DE3) pLacI, purified as the wild type
T5 sequence (looked up): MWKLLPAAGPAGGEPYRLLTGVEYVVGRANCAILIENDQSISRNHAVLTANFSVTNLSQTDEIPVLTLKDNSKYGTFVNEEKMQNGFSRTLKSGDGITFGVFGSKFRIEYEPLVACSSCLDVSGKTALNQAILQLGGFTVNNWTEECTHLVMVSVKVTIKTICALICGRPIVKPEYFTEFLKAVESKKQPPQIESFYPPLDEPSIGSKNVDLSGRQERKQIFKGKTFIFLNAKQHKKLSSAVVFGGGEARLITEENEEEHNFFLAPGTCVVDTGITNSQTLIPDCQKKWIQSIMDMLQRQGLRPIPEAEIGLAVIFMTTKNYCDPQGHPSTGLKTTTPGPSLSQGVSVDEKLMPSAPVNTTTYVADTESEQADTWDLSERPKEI

Kd (hsNbs1(384) R28A): 35.9 µM | Kd (hsNbs1(384) K160A): 133 µM | Kd (hsNbs1(384) S118G): 149 µM | Kd (hsNbs1(384) K125A): 39.6 µM | Kd (hsNbs1(384) K29A): 26 µM
Binder: {FITC′}-GGRYIPPN[pT]PENFWEVGFPEEQ [hsCtIP phosphopeptide R841YIPPNpTPENFWEVGFPEEQ860 with N-terminal FITC-Gly-Gly]
